US20190077860A1 (EISAI R AND D MANAGEMENT, published 2019)

T1: human EphA10 extracellular region-SEAP-His protein (human, UniProt Q5JZY3 34-565)
T1 construct: extracellular domain; also called hEphA10-SEAP-His
T1 sequence (looked up): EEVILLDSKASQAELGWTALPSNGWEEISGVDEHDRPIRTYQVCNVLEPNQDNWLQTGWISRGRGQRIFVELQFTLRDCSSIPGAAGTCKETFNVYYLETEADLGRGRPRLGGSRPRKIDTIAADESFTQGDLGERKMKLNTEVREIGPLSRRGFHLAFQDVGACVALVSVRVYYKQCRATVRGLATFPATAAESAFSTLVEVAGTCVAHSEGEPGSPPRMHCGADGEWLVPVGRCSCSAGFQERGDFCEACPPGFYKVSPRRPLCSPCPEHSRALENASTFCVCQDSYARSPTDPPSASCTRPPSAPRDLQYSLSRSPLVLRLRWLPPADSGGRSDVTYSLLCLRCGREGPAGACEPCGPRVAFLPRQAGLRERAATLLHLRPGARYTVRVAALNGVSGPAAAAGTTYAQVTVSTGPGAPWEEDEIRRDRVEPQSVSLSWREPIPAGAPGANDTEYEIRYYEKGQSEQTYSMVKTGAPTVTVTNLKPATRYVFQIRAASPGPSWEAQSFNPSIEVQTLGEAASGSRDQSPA


Columns and labels:
[1] = target: T2, human EphA4 extracellular region-SEAP-His protein (human, UniProt P54764 20-547); test: competition ELISA, competitor human Ephrin A5-Fc
T2 construct: also called hEphA4-SEAP-His
T2 sequence (P54764 20-547): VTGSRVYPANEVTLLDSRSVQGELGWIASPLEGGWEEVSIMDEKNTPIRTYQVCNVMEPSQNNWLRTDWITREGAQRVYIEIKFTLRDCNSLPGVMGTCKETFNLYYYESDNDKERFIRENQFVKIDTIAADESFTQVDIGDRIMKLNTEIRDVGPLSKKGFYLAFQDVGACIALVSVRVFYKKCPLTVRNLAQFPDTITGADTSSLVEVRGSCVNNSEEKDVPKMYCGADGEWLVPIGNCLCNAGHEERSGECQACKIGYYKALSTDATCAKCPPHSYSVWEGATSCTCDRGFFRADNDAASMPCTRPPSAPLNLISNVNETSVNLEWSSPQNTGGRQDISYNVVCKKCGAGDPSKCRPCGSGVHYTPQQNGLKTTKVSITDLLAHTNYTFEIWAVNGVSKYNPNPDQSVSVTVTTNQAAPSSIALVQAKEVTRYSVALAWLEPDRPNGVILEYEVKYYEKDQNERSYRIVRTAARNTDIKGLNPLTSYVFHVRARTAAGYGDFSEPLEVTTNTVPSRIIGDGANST
How it was run: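 Ligand binding to captured receptor measured as A450 after HRP-streptavidin/TMBZ development and acid stop. Receptor fusion (10 nM final) was immobilised via anti-alkaline phosphatase antibody; biotinylated Ephrin A5-Fc (0.7 nM final) added together with antibody titrations from 0 to 3000 nM, 1 h, room temperature.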

[2] = target: T2, human EphA4 extracellular …; test: SPR, Ab captured
How it was run: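 Affinity (KD=kd/ka) obtained by fitting SPR curves to a 1:1 model. Analyte was human EphA4 extracellular region-SEAP-His, injected sequentially from 0.6 to 50 nM in HBS-EP (120 s on, 900 s off), onto humanized antibodies on protein A or antibody A on anti-mouse IgG1 surfaces, capture level about 30–60 RU.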

SEAP-His = SEAP-His (UniProt P05187 23-511); test: ELISA
Chain of SEAP-His (P05187 23-511): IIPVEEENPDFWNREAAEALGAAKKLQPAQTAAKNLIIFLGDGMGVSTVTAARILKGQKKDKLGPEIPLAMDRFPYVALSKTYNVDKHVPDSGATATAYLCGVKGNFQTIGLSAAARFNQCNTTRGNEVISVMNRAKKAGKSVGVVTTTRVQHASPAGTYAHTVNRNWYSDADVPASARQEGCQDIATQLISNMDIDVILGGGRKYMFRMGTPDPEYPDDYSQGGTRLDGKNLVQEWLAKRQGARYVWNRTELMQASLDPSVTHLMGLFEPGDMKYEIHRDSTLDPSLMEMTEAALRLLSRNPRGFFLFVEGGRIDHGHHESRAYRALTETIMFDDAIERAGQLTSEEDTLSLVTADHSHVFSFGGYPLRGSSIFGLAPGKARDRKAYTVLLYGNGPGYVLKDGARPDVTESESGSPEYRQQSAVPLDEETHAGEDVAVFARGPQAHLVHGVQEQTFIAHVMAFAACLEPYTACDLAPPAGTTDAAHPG

[3] = target: T1, human EphA10 extracellular …; test: ELISA

IC50 [1] | Kd [2] | koff [2] | kon [2] | A450 as % of hEphA4-SEAP-His (SEAP-His) | A450 as % of hEphA4-SEAP-His [3] | Binder
2.5 nM | 1.3 nM | 0.0004 s⁻¹ | 320000 M⁻¹ s⁻¹ | 5.3% | 5.1% | humanized antibody No. 135 (antibody, human IgG2, human Ig kappa; also called L2-4/HK1) heavy: QVQLVQSGSELKKPGASVKVSCKASGYTFTDYSMHWVRQAPGQGLEWMGWINTETGEPTYADDFKGRFVFSLDTSVSTAYLQISSLKAEDTAVYYCARIPLYYYGSRYWYFDVWGQGTTVTVSSASTKGPSVFPLAPSSRSTSESTAALGCLVKDYFPEPVTVSWNSGALTSGVHTFPAVLQSSGLYSLSSVVTVPSSNFGTQTYTCNVDHKPSNTKVDKTVERKSCVECPPCPAPPAAAPSVFLFPPKPKDTLMISRTPEVTCVVVDVSHEDPEVQFNWYVDGVEVHNAKTKPREEQFNSTFRVVSVLTVVHQDWLNGKEYKCKVSNKGLPAPIEKTISKTKGQPREPQVYTLPPSREEMTKNQVSLTCLVKGFYPSDIAVEWESNGQPENNYKTTPPMLDSDGSFFLYSKLTVDKSRWQQGNVFSCSVMHEALHNHYTQKSLSLSPG light: EIVMTQSPATLSVSPGERATLSCRASENIYRNLAWYQQKPGQSPRLLIYAATNLADGIPARFSGSGSGTEYTLTISSLQSEDFAVYYCQHFWGTPWTFGQGTKVEIKRTVAAPSVFIFPPSDEQLKSGTASVVCLLNNFYPREAKVQWKVDNALQSGNSQESVTEQDSKDSTYSLSSTLTLSKADYEKHKVYACEVTHQGLSSPVTKSFNRGEC
2.5 nM | 1.4 nM | 0.00039 s⁻¹ | 290000 M⁻¹ s⁻¹ | 5.2% | 5.2% | humanized antibody No. 136 (antibody, human IgG2, human Ig kappa; also called L2-4/HK2) heavy: QVQLVQSGSELKKPGASVKVSCKASGYTFTDYSMHWVRQAPGQGLKWMGWINTETGEPTYADDFKGRFVFSLDTSVSTAYLQISSLKAEDTAVYYCARIPLYYYGSRYWYFDVWGQGTTVTVSSASTKGPSVFPLAPSSRSTSESTAALGCLVKDYFPEPVTVSWNSGALTSGVHTFPAVLQSSGLYSLSSVVTVPSSNFGTQTYTCNVDHKPSNTKVDKTVERKSCVECPPCPAPPAAAPSVFLFPPKPKDTLMISRTPEVTCVVVDVSHEDPEVQFNWYVDGVEVHNAKTKPREEQFNSTFRVVSVLTVVHQDWLNGKEYKCKVSNKGLPAPIEKTISKTKGQPREPQVYTLPPSREEMTKNQVSLTCLVKGFYPSDIAVEWESNGQPENNYKTTPPMLDSDGSFFLYSKLTVDKSRWQQGNVFSCSVMHEALHNHYTQKSLSLSPG light: EIVMTQSPATLSVSPGERATLSCRASENIYRNLAWYQQKPGQSPRLLIYAATNLADGIPARFSGSGSGTEYTLTISSLQSEDFAVYYCQHFWGTPWTFGQGTKVEIKRTVAAPSVFIFPPSDEQLKSGTASVVCLLNNFYPREAKVQWKVDNALQSGNSQESVTEQDSKDSTYSLSSTLTLSKADYEKHKVYACEVTHQGLSSPVTKSFNRGEC

Second part, the binder before the results:

Binder | IC50 [1] | Kd [2] | koff [2] | kon [2] | A450 as % of hEphA4-SEAP-His (SEAP-His) | A450 as % of hEphA4-SEAP-His [3]
humanized antibody No. 160 (antibody, human IgG2, human Ig kappa; also called L1-6/HK4) heavy: QIQLVQSGSELKKPGASVKVSCKASGYTFTDYSMHWVRQAPGQGLKWMGWINTETGEPTYADDFKGRFVFSLDTSVSTAYLQISSLKAEDTAVYYCARIPLYYYGSRYWYFDVWGQGTTVTVSSASTKGPSVFPLAPSSRSTSESTAALGCLVKDYFPEPVTVSWNSGALTSGVHTFPAVLQSSGLYSLSSVVTVPSSNFGTQTYTCNVDHKPSNTKVDKTVERKSCVECPPCPAPPAAAPSVFLFPPKPKDTLMISRTPEVTCVVVDVSHEDPEVQFNWYVDGVEVHNAKTKPREEQFNSTFRVVSVLTVVHQDWLNGKEYKCKVSNKGLPAPIEKTISKTKGQPREPQVYTLPPSREEMTKNQVSLTCLVKGFYPSDIAVEWESNGQPENNYKTTPPMLDSDGSFFLYSKLTVDKSRWQQGNVFSCSVMHEALHNHYTQKSLSLSPG light: DIQMTQSPSSLSASVGDRVTITCRASENIYRNLAWYQQKPGKAPQLLLYAATNLADGVPSRFSGSGSGTDYTLTISSLQPEDFATYYCQHFWGTPWTFGQGTKVEIKRTVAAPSVFIFPPSDEQLKSGTASVVCLLNNFYPREAKVQWKVDNALQSGNSQESVTEQDSKDSTYSLSSTLTLSKADYEKHKVYACEVTHQGLSSPVTKSFNRGEC | 2.2 nM | 1.9 nM | 0.00061 s⁻¹ | 320000 M⁻¹ s⁻¹ | 6.3% | 5%
humanized antibody No. 134 (antibody, human IgG2, human Ig kappa; also called L2-4/HA2) heavy: QVQLVQSGSELKKPGASVKVSCKASGYTFTDYSMHWVRQAPGQGLKWMGWINTETGEPTYAQGFTGRFVFSLDTSVSTAYLQISSLKAEDTAVYYCARIPLYYYGSRYWYFDVWGQGTTVTVSSASTKGPSVFPLAPSSRSTSESTAALGCLVKDYFPEPVTVSWNSGALTSGVHTFPAVLQSSGLYSLSSVVTVPSSNFGTQTYTCNVDHKPSNTKVDKTVERKSCVECPPCPAPPAAAPSVFLFPPKPKDTLMISRTPEVTCVVVDVSHEDPEVQFNWYVDGVEVHNAKTKPREEQFNSTFRVVSVLTVVHQDWLNGKEYKCKVSNKGLPAPIEKTISKTKGQPREPQVYTLPPSREEMTKNQVSLTCLVKGFYPSDIAVEWESNGQPENNYKTTPPMLDSDGSFFLYSKLTVDKSRWQQGNVFSCSVMHEALHNHYTQKSLSLSPG light: EIVMTQSPATLSVSPGERATLSCRASENIYRNLAWYQQKPGQSPRLLIYAATNLADGIPARFSGSGSGTEYTLTISSLQSEDFAVYYCQHFWGTPWTFGQGTKVEIKRTVAAPSVFIFPPSDEQLKSGTASVVCLLNNFYPREAKVQWKVDNALQSGNSQESVTEQDSKDSTYSLSSTLTLSKADYEKHKVYACEVTHQGLSSPVTKSFNRGEC | 3 nM | 1.2 nM | 0.00032 s⁻¹ | 280000 M⁻¹ s⁻¹ | 5.1% | 5%
humanized antibody No. 132 (antibody, human IgG2, human Ig kappa; also called L2-4/HA4) heavy: QIQLVQSGSELKKPGASVKVSCKASGYTFTDYSMHWVRQAPGQGLKWMGWINTETGEPTYAQGFTGRFVFSLDTSVSTAYLQISSLKAEDTAVYYCARIPLYYYGSRYWYFDVWGQGTTVTVSSASTKGPSVFPLAPSSRSTSESTAALGCLVKDYFPEPVTVSWNSGALTSGVHTFPAVLQSSGLYSLSSVVTVPSSNFGTQTYTCNVDHKPSNTKVDKTVERKSCVECPPCPAPPAAAPSVFLFPPKPKDTLMISRTPEVTCVVVDVSHEDPEVQFNWYVDGVEVHNAKTKPREEQFNSTFRVVSVLTVVHQDWLNGKEYKCKVSNKGLPAPIEKTISKTKGQPREPQVYTLPPSREEMTKNQVSLTCLVKGFYPSDIAVEWESNGQPENNYKTTPPMLDSDGSFFLYSKLTVDKSRWQQGNVFSCSVMHEALHNHYTQKSLSLSPG light: EIVMTQSPATLSVSPGERATLSCRASENIYRNLAWYQQKPGQSPRLLIYAATNLADGIPARFSGSGSGTEYTLTISSLQSEDFAVYYCQHFWGTPWTFGQGTKVEIKRTVAAPSVFIFPPSDEQLKSGTASVVCLLNNFYPREAKVQWKVDNALQSGNSQESVTEQDSKDSTYSLSSTLTLSKADYEKHKVYACEVTHQGLSSPVTKSFNRGEC | 3.1 nM | 1.2 nM | 0.00031 s⁻¹ | 270000 M⁻¹ s⁻¹ | 4.9% | 4.7%
humanized antibody No. 133 (antibody, human IgG2, human Ig kappa; also called L2-4/HA1) heavy: QVQLVQSGSELKKPGASVKVSCKASGYTFTDYSMHWVRQAPGQGLEWMGWINTETGEPTYAQGFTGRFVFSLDTSVSTAYLQISSLKAEDTAVYYCARIPLYYYGSRYWYFDVWGQGTTVTVSSASTKGPSVFPLAPSSRSTSESTAALGCLVKDYFPEPVTVSWNSGALTSGVHTFPAVLQSSGLYSLSSVVTVPSSNFGTQTYTCNVDHKPSNTKVDKTVERKSCVECPPCPAPPAAAPSVFLFPPKPKDTLMISRTPEVTCVVVDVSHEDPEVQFNWYVDGVEVHNAKTKPREEQFNSTFRVVSVLTVVHQDWLNGKEYKCKVSNKGLPAPIEKTISKTKGQPREPQVYTLPPSREEMTKNQVSLTCLVKGFYPSDIAVEWESNGQPENNYKTTPPMLDSDGSFFLYSKLTVDKSRWQQGNVFSCSVMHEALHNHYTQKSLSLSPG light: EIVMTQSPATLSVSPGERATLSCRASENIYRNLAWYQQKPGQSPRLLIYAATNLADGIPARFSGSGSGTEYTLTISSLQSEDFAVYYCQHFWGTPWTFGQGTKVEIKRTVAAPSVFIFPPSDEQLKSGTASVVCLLNNFYPREAKVQWKVDNALQSGNSQESVTEQDSKDSTYSLSSTLTLSKADYEKHKVYACEVTHQGLSSPVTKSFNRGEC | 3 nM | 1.1 nM | 0.00032 s⁻¹ | 300000 M⁻¹ s⁻¹ | 4.7% | 4.7%
